We go through 167 variants from the RNAGym collection of RNA variant scans (doi:10.7554/elife.80360).

B1: Twister Ribozyme (parent)
chain: AACACUGCCAAUGCCGGUCCCAAGCCCGGAUAAAAGUGGAGGGGGCGG

Variants of B1 are the subject of the series. The series can be described thus: self-cleavage, relative activity (ratio to wild type); higher = more cleavage; co-transcriptional.
Regarding U37G G43A, the self-cleavage was determined as 0.13.
For U37G G43U, the self-cleavage was found to be 0.173.
G39A G43A: the self-cleavage turned out to be 0.152.
In the case of G39A G43C it was 0.134; in that of A34G G38C, 0.632; in that of A34G G38A, 0.629.
In the case of U37A G45C it was 0.323; in that of A34U G45C, 0.295; in that of A34U G45A, 0.815.
Consider A35U U37G, for which the self-cleavage was found to be 0.69.
Under A35U U37C stands 0.633.
A33U G44U: the self-cleavage was determined as 0.897.
Under U37A G41U stands 0.115.
Under U37A G41A stands 0.16; under U37A G41C, 0.178.
In the case of G38C it was 0.951.
Take G38U: the self-cleavage came to 0.923.
Under G38A stands 0.965; under A33U A34G, 0.76; under A34C G48A, 0.187.
Turning to U37G C46G, the self-cleavage is 0.79.
On to U37G C46U, for which the self-cleavage came out at 0.76.
Under G38U G47A stands 0.564; under G36A G47A, 0.557.
In the case of G36A G47U, the self-cleavage stood at 0.76.
For G36C G45U, the self-cleavage is 0.257.
Regarding G36C G45C, the self-cleavage came out at 0.201.
With G36C U37C, the self-cleavage worked out at 0.123.
In the case of G36C U37A it was 0.107; in that of G36C U37G, 0.297; in that of G36C G43U, 0.116.
Under G36C G43A stands 0.134.
In the case of G39A G42C it was 0.12.
Turning to G36U G45C, the self-cleavage was found to be 0.199.
Under G36U G45U stands 0.315; under U37C G39U, 0.11; under A35C G47C, 0.574.
For A34U A35G, the self-cleavage came out at 0.191.
Under G36U U37G stands 0.37; under G38C G42U, 0.183.
Under G38C G42C stands 0.238; under A33G U37C, 0.532; under A33G U37A, 0.814.
Under A34U G36C stands 0.132; under A34U G36U, 0.124; under A33U G41A, 0.472.
As for A33U G41C, the self-cleavage turned out to be 0.18.
In the case of A33U G41U it was 0.489; in that of G38U A40G, 0.101.
In the case of G38U A40C it was 0.127; in that of G38U A40U, 0.116; in that of G36C G44A, 0.7.
For A34C C46A, the self-cleavage was found to be 0.142.
As for A34C G41A, the self-cleavage was 0.133.
In the case of A33G G48A it was 0.856.
For the variant A33G G48C, the self-cleavage amounted to 1.07.
Under A33G G48U stands 0.903; under G36A U37C, 0.156; under U37A G47A, 0.457.
In the case of A34U G39C it was 0.138; in that of A35C G39U, 0.144.
Under A34C G39C stands 0.0839; under A34C G39A, 0.155; under G38C G43U, 0.242.
Take G38C G43C: the self-cleavage came to 0.137.
Under G38C G43A stands 0.149; under A33U A40G, 0.154.
With A34G G44A, the self-cleavage worked out at 0.809.
In the case of A35C A40U it was 0.142; in that of A35C A40G, 0.18.
In the case of A35C G42C it was 0.381.
Turning to A35G G44C, the self-cleavage was determined as 0.821.
In the case of A35G G44A, the self-cleavage worked out at 0.808.
Under A34G G43C stands 0.162.
For A34G G43A, the self-cleavage was 0.136.
Under A34G G43U stands 0.133; under A33U G48U, 0.931.
Under A34U C46A stands 0.76; under G38A G43C, 0.148.
Under G38A G43A stands 0.19; under U37A G42C, 0.252; under U37A G42A, 0.129.
Regarding U37A G42U, the self-cleavage stood at 0.153.
As for A33U U37C, the self-cleavage stood at 0.379.
In the case of G36A G44A it was 0.8.
In the case of G36A G44U it was 0.791.
As to G36A G44C, the self-cleavage came out at 0.762.
Regarding A34G G45A, the self-cleavage is 0.721.
With A34G G45U, the self-cleavage was 0.553.
In the case of A33G G45U it was 0.782.
With U37C C46G, the self-cleavage amounted to 0.706.
In the case of U37C C46A it was 0.71.
For G38A G45A, the self-cleavage stood at 0.797.
Regarding A35U G43A, the self-cleavage is 0.25.
In the case of A35U G43C it was 0.208; in that of A35U G43U, 0.352; in that of A35U C46U, 0.894.
Regarding A35U C46A, the self-cleavage was determined as 1.04.
Regarding A35U C46G, the self-cleavage turned out to be 0.927.
In the case of A35C G41C it was 0.245; in that of A35C G41U, 0.709; in that of G38C G45U, 0.719.
For the variant G38C G45C, the self-cleavage amounted to 0.473.
As for G38C G47U, the self-cleavage worked out at 0.76.
In the case of G38C G47A it was 0.737; in that of G38C G47C, 0.388; in that of A34G C46G, 0.815.
In the case of U37G G39C it was 0.143; in that of U37G G39U, 0.114; in that of G36U G43A, 0.102.
Under G36U G43C stands 0.124.
Turning to A35U G48C, the self-cleavage came to 1.07.
Under A35U G48U stands 1.17; under G38A G41C, 0.157.
Consider G38A G41U, for which the self-cleavage amounted to 0.315.
Under U37C G44U stands 0.768; under U37C G44C, 0.738.
As for U37C G44A, the self-cleavage was 0.69.
As for G36C G48U, the self-cleavage was found to be 0.455.
In the case of U37G G44U it was 0.805; in that of G38U G43U, 0.156.
Under G38U G43A stands 0.154; under G38U G43C, 0.126; under A34G A35C, 0.742.
In the case of A35U G42A it was 0.376.
For the variant A35U G42C, the self-cleavage was 0.539.
In the case of A35C U37A it was 0.702; in that of A35C U37C, 0.592; in that of G39A A40C, 0.139.
In the case of G39A A40G it was 0.145.
Under G39A A40U stands 0.161; under A34C G38U, 0.138; under U37A G44U, 0.755.
U37A G44C: the self-cleavage came out at 0.821.
Under U37A G44A stands 0.873; under G38U G48U, 1.05.
As to G38U G48A, the self-cleavage stood at 0.854.
In the case of G36A G48C it was 0.99; in that of G36A G48U, 0.809.
Under G38U G39C stands 0.14; under G38U G39A, 0.185.
In the case of A35G C46U it was 0.854.
As for A35G C46G, the self-cleavage came to 0.868.
Turning to G36A A40G, the self-cleavage came to 0.144.
Under G36A A40U stands 0.124.
In the case of A34C G44A it was 0.385.
Under A34C G44U stands 0.165; under A34C G44C, 0.156; under G36A G39U, 0.12.
U37A G39A: the self-cleavage is 0.173.
As for U37A G39U, the self-cleavage turned out to be 0.159.
Under U37C A40C stands 0.0942.
In the case of U37C A40U it was 0.0912; in that of U37C A40G, 0.161; in that of A33U G43A, 0.233.
Under A33U G43C stands 0.101.
Regarding A34G G47U, the self-cleavage came out at 0.553.
Under A34G G47C stands 0.193; under G38A C46A, 0.875; under G38A C46G, 0.966.
As for G36A G45C, the self-cleavage is 0.256.
Consider A35C G45C, for which the self-cleavage came out at 0.472.
For A33U G47C, the self-cleavage was determined as 0.439.
Under U37C G47C stands 0.341; under A35G G47A, 0.706; under A34U G48A, 0.703.
In the case of A34U G48U it was 0.811.
